Experimental data from patent US20090118481A1.

Biological target: LS-Rg, chimeric protein of the extracellular domain of human L-selectin joined to the Fc domain of a human G2 immunoglobulin (human) (UniProt P14151)
Assay: competition of unlabeled antibody with radio-labeled 2'-F RNA ligand LF1807 for purified LS-Rg

LS-Rg, chimeric protein of the extracellular domain of human L-selectin joined to the Fc domain of a human G2 immunoglobulin (human), sequence (P14151 39-332, change not shown): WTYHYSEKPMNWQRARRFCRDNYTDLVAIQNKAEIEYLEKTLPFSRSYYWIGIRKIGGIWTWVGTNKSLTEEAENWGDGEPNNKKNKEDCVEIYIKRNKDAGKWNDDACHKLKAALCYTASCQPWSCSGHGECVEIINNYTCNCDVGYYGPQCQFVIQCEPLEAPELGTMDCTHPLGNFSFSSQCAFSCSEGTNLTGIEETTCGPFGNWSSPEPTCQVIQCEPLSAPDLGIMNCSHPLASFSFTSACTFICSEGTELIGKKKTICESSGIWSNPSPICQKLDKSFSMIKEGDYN

Substance: DREG-56, blocking monoclonal anti-L-selectin antibody
- concentration giving complete inhibition: 300 nM
